Tests used:
[1] = target: T1, KIR2DL2 (22-225)-His, deglycosylated (human, UniProt P43627 22-225); assay: size exclusion chromatography of the mixed proteins; complex then crystallised
T1 construct: IL-2 signal peptide left out; treated with Protein Deglycosylation Mix II; also called recombinant KIR2DL2

[2] = target: T2, recombinant KIR3DL1 (extracellular domain-Fc-Avi, in-house) (human); assay: flow cytometry, KIR-Fc 0.1 µM on scFv-K562 cells
T2 construct: IL-2 signal peptide left out; also called soluble KIR3DL1
T2 sequence (chain, as listed by the source): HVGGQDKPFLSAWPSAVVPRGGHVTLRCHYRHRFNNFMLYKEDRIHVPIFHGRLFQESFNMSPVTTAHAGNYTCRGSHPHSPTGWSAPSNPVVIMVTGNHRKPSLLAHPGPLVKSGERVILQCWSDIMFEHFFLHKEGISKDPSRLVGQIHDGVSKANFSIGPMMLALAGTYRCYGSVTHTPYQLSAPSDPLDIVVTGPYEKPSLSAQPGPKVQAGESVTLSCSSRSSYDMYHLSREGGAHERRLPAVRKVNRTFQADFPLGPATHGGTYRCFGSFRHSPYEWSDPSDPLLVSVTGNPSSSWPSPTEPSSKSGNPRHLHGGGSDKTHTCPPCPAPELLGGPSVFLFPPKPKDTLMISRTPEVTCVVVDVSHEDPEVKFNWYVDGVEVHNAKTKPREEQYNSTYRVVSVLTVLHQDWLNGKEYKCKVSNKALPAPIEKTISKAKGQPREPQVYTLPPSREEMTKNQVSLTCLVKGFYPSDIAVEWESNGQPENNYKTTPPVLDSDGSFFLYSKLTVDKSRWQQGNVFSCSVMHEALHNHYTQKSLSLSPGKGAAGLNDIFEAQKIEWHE

[3] = target: T3, recombinant human KIR3DS1/CD158e2 Fc chimera protein (4136-KR-050, R&D Systems) (human, UniProt Q14943 22-340, limits assumed); assay: flow cytometry, KIR-Fc on scFv-K562 cells
T3 construct: Bought Fc chimera; also called soluble KIR3DS1; recombinant KIR3DS1
T3 sequence (Q14943 22-340 limits assumed, change not shown): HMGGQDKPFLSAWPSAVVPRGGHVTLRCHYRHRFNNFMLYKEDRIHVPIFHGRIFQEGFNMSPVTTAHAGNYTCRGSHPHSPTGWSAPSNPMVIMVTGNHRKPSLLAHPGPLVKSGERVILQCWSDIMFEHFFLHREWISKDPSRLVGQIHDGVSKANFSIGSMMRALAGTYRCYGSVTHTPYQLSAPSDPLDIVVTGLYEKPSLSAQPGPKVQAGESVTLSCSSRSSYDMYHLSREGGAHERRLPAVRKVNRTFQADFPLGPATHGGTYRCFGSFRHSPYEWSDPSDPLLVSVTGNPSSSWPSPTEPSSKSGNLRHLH

T1 sequence (P43627 other isoform, or with tags, fused parts or gaps): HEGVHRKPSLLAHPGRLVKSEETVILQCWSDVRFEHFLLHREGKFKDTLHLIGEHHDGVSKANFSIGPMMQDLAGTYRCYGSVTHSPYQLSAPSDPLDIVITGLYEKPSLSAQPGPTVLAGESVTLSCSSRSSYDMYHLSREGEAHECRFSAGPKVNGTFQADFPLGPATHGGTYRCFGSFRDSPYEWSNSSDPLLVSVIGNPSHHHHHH

Binder | binding result [1] | binding result [2] | binding result [3]
Fab fragment of a2DL2/3-DS10 (Fab, V domains shown, Signal peptides left out; also called a2DL2/3-DS10 Fab; 61_3092_02_F10_Fab) VH: QVQLVQSGAEVKKPGSSVKVSCKASGGTFSSFAISWVRQAPGQGLEWMGGIIPIFGTANYAQKFQGRVTITADESTSTAYMELSSLRSEDTAVYYCARVSGTTGGYYYGMDVWGQGTLVTVSS VL: AIRMTQSPSSVSASVGDRVTITCRASQGIGNWLAWYQQKPGRAPKLLISTASSLQSGVPSRFSGGGSGRGFTLTISSLQLEDFATYYCQQSYITPWTFGQGTKVEIKV | binds | – | –
membrane-type a3DL1-DS6 scFv (scFv, On K562 cells) scFv: DYKDDDDKGSGQMQLVQSGAEVKKPGESLKISCKGSGYSFTSYWIGWVRQMPGKGPEWMGIIYPGDSYTNYSPSFQGHVTISADKSISTAYLQWSSLKASDTAMYYCARLAPTVEDAFDIWGQGTLVTVSSGGGGSGGGGSGGGGSQSVLTQPPSVSEAPGQRVTISCTGSSSNIGAGYDVHWYQQLPGTAPKLLIYGNSNRPSGVPDRFSGSKSGTSASLAITGLQAEDEADYYCQSYDSSLSEEVFGTGTKVTVLALSNSIMYFSHFVPVFLPAKPTTTPAPRPPTPAPTIASQPLSLRPEACRPAAGGAVHTRGLDFACDIYIWAPLAGTCGVLLLSLVITLYCNH | – | binds | no binding (tested: 0.1 µM)

Reference: patent EP4610277A1 (Daiichi Sankyo Company, Limited, dated 2025)
